According to US20090192084A1:

What was measured:
[1] = target: Kelch-like protein 22. KLEIL22 (human) (UniProt Q53GT1); assay: Flag co-IP, MudPIT MS, MG132
[2] = target: F-box//WD-repeat protein 1B, FBW1B (human) (UniProt Q9UKB1); assay: Flag co-IP, MudPIT MS, MG132
[3] = target: UBR2 (human) (UniProt Q8IWV8); assay: Flag co-IP, MudPIT MS, MG132
[4] = target: Retinoblastoma-associated factor 600, UBR4 (human) (UniProt Q5T4S7); assay: Flag co-IP, MudPIT MS, MG132
[5] = target: SKP1 (human) (UniProt P63208); assay: Flag co-IP, MudPIT MS, MG132
Chain of SKP1 (human) (P63208 2-163 limits assumed): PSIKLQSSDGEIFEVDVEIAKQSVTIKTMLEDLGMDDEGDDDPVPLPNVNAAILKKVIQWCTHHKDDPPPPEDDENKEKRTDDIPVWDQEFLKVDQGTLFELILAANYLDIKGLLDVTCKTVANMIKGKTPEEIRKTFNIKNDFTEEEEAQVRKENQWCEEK

[6] = target: CUL4- and DDB I-associated WDR protein 2, WDR26 (human) (UniProt Q9H7D7); assay: Flag co-IP, MudPIT MS, MG132
[7] = target: Cullin 1 (human) (UniProt Q13616); assay: Flag co-IP, MudPIT MS, MG132
[8] = target: Cullin 2 (human) (UniProt Q13617); assay: Flag co-IP, MudPIT MS, MG132
[9] = target: gp78 (human) (UniProt Q9UKV5); assay: Flag co-IP, MudPIT MS, MG132
Chain of gp78 (human) (Q9UKV5 whole entry): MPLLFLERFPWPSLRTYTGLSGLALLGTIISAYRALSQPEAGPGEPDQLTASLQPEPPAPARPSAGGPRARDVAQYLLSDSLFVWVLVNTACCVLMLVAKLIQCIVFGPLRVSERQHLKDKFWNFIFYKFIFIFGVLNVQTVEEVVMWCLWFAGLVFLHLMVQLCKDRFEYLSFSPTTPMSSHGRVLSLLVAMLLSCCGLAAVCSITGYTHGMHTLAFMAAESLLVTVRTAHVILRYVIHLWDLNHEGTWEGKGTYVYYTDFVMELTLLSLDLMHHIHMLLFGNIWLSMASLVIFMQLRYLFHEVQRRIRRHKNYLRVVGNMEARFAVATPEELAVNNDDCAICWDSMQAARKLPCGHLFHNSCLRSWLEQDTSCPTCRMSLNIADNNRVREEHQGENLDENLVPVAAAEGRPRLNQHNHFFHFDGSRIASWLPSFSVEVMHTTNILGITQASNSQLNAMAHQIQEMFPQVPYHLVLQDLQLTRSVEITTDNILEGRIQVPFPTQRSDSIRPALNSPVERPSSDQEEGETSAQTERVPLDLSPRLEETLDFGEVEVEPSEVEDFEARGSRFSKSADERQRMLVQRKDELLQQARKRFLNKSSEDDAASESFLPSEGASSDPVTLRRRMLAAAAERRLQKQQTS

[10] = target: Cullin 3 (human) (UniProt Q13618); assay: Flag co-IP, MudPIT MS, MG132
[11] = target: Kelch repeat and BTB domain-containing protein 7, KBTB7 (human) (UniProt Q8WVZ9); assay: Flag co-IP, MudPIT MS, DMSO
[12] = target: Kelch-like protein 22. KLEIL22 (human) (UniProt Q53GT1); assay: Flag co-IP, MudPIT MS, DMSO
[13] = target: Praja 2 (human) (UniProt O43164); assay: Flag co-IP, MudPIT MS, DMSO
Chain of Praja 2 (human) (O43164 2-708 limits assumed): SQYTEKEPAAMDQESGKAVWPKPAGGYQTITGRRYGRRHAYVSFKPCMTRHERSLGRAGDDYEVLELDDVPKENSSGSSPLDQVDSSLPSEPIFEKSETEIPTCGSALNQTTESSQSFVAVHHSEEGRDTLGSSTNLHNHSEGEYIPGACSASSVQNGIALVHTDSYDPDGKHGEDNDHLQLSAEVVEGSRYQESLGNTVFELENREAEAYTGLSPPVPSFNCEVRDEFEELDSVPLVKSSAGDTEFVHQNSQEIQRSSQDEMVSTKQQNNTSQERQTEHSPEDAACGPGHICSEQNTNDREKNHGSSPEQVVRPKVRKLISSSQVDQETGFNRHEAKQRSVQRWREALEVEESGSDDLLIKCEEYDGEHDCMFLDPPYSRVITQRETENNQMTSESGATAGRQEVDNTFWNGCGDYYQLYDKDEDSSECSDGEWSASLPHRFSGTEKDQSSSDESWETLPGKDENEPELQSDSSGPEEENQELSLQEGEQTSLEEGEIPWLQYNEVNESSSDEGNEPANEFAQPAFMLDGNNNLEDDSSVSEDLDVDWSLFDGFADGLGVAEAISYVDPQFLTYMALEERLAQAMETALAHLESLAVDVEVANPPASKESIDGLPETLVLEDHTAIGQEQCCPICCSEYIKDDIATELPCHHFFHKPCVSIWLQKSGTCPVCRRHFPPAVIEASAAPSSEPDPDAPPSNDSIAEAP

[14] = target: UBR2 (human) (UniProt Q8IWV8); assay: Flag co-IP, MudPIT MS, DMSO
[15] = target: Retinoblastoma-associated factor 600, UBR4 (human) (UniProt Q5T4S7); assay: Flag co-IP, MudPIT MS, DMSO
[16] = target: UBR1 (human) (UniProt Q8IWV7); assay: Flag co-IP, MudPIT MS, DMSO
[17] = target: SKP1 (human) (UniProt P63208); assay: Flag co-IP, MudPIT MS, DMSO
[18] = target: Cullin 1 (human) (UniProt Q13616); assay: Flag co-IP, MudPIT MS, DMSO
[19] = target: gp78 (human) (UniProt Q9UKV5); assay: Flag co-IP, MudPIT MS, DMSO
[20] = target: Cullin 3 (human) (UniProt Q13618); assay: Flag co-IP, MudPIT MS, DMSO
[21] = target: PLAP (human) (UniProt Q9Y263); assay: Flag co-IP, 293 cells, MudPIT MS
Chain of PLAP (human) (Q9Y263 whole entry): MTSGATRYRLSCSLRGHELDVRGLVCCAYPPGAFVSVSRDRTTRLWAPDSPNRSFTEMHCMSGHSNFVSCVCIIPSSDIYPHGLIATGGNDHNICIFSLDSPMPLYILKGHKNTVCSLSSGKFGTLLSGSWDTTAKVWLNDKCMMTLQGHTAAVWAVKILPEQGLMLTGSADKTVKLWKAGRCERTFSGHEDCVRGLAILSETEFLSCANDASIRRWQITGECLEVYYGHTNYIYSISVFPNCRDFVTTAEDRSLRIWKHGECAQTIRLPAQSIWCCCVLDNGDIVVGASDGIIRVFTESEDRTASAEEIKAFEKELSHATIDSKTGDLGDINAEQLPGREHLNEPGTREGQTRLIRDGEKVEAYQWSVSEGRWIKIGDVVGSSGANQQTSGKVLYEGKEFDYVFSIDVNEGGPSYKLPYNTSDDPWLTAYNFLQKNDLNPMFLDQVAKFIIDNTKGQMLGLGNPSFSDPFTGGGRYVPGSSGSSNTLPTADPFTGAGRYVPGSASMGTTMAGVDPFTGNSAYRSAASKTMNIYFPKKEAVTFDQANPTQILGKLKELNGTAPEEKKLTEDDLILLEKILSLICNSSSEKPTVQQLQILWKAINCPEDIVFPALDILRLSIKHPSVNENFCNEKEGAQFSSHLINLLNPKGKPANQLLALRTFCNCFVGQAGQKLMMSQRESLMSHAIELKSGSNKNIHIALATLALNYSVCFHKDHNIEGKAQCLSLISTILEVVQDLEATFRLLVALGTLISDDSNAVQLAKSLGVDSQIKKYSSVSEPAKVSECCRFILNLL

[22] = target: T1, VCIP135 (human) (UniProt Q96JH7); assay: Flag co-IP, 293 cells, MudPIT MS
T1 sequence (looked up): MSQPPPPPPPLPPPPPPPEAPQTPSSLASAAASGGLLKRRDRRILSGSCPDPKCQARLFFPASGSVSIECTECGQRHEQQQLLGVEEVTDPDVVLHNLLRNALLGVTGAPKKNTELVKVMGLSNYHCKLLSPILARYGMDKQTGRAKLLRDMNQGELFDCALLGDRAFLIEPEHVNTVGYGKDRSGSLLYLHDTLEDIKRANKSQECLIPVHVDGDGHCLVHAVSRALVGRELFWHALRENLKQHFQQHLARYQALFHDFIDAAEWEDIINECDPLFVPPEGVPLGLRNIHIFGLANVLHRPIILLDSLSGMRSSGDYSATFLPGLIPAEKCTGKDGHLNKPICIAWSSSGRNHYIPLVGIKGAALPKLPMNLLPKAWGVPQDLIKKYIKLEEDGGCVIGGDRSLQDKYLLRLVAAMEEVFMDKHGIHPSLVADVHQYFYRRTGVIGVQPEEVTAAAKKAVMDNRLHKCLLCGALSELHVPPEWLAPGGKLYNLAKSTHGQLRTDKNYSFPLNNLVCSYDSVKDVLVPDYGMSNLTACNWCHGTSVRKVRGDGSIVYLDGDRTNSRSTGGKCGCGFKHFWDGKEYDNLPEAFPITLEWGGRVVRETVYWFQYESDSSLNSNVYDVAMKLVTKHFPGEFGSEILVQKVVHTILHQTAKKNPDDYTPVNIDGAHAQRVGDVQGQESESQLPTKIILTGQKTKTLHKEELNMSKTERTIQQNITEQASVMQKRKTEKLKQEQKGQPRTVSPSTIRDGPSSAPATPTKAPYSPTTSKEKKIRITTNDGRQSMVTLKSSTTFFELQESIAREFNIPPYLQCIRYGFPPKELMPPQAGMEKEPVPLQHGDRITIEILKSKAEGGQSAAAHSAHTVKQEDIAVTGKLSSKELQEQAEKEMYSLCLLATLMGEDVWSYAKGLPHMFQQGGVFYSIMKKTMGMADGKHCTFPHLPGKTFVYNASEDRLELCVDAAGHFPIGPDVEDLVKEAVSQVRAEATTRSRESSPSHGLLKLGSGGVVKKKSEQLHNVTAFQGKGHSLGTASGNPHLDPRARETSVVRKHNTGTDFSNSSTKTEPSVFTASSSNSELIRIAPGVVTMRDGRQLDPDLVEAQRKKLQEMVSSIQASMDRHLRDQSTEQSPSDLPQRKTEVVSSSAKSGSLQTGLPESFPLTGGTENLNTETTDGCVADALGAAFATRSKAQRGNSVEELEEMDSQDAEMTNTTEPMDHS

[23] = target: p97-Myc; assay: p97-Myc co-IP, 293 cells, MudPIT MS
Chain of p97-Myc (Q01853 2-806): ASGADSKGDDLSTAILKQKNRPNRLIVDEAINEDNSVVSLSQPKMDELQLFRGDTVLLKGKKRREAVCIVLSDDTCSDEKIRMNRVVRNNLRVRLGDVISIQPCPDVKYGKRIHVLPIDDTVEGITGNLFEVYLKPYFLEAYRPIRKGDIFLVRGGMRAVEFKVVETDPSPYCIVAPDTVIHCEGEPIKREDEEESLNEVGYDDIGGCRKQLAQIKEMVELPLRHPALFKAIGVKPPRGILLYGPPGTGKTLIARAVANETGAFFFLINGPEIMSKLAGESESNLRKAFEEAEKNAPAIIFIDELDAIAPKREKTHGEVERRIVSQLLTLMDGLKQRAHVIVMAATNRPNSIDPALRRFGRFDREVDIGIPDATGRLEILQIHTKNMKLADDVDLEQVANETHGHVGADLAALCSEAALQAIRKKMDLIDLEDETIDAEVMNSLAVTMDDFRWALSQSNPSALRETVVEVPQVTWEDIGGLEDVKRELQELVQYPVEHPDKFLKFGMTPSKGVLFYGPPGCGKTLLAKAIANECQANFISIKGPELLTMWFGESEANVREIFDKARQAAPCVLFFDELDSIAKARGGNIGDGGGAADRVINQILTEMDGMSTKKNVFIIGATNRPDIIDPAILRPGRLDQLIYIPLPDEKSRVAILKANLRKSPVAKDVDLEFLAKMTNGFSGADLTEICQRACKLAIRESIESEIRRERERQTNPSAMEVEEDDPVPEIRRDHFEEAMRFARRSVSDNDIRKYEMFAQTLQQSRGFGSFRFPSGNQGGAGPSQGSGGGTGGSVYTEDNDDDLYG

Chain of UBR2 (human) (Q8IWV8 2-1755 limits assumed): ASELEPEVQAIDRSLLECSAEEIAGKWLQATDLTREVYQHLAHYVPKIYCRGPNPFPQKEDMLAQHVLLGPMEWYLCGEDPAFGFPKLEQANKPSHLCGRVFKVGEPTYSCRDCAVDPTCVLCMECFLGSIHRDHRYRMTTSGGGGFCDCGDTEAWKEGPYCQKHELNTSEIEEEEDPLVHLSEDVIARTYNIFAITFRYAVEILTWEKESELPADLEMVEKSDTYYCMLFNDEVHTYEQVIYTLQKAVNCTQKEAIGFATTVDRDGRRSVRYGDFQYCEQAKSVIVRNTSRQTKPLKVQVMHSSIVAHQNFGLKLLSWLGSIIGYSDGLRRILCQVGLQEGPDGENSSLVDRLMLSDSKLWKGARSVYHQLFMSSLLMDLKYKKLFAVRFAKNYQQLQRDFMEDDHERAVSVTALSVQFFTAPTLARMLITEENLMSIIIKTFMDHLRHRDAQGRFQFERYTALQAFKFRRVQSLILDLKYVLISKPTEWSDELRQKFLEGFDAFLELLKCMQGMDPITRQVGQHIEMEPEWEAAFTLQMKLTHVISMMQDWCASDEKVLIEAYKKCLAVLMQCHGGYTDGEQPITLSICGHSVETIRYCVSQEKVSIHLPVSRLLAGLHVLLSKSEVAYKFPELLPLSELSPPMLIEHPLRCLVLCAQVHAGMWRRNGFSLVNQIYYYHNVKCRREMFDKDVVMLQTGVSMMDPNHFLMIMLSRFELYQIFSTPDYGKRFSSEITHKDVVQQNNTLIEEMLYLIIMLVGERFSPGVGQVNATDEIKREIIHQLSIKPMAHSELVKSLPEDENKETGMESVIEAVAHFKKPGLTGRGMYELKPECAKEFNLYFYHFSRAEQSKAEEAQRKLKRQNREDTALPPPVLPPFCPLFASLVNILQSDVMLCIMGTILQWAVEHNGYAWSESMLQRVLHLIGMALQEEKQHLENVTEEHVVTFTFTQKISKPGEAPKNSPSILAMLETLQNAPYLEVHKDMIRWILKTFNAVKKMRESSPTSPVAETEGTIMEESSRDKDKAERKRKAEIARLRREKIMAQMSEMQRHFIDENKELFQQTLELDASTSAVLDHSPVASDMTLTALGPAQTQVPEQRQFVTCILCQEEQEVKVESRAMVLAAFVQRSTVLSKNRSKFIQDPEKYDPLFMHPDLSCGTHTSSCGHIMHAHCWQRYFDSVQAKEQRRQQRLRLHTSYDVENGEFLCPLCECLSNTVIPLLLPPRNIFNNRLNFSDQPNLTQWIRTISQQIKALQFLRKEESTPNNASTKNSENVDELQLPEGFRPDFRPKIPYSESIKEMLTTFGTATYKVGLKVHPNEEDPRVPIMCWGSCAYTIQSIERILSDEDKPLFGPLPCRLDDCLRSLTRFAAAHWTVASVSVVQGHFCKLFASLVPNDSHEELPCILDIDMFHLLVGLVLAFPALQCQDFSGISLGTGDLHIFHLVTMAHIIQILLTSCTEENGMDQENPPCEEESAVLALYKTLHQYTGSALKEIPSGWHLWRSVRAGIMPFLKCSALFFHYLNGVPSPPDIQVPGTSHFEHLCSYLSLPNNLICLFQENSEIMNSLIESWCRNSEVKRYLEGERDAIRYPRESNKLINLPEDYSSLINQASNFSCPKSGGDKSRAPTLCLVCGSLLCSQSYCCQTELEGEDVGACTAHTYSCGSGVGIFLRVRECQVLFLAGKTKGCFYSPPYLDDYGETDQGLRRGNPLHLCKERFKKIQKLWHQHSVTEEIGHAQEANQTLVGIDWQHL

Flag-FAF1 (from UniProt Q9UNN5 1-650)
abundance factor (AF) [1]: 11.7
sequence count [1]: 8
spectrum count [1]: 8
abundance factor (AF) [2]: 3.4
sequence count [2]: 2
spectrum count [2]: 2
abundance factor (AF) [3]: 1
sequence count [3]: 2
spectrum count [3]: 2
abundance factor (AF) [4]: 10.2
sequence count [4]: 47
spectrum count [4]: 56
abundance factor (AF) [5]: 33.6
sequence count [5]: 4
spectrum count [5]: 6
abundance factor (AF) [6]: 8.9
sequence count [6]: 5
spectrum count [6]: 5
abundance factor (AF) [7]: 8.4
sequence count [7]: 5
spectrum count [7]: 7
abundance factor (AF) [8]: 7.2
sequence count [8]: 6
spectrum count [8]: 6
abundance factor (AF) [9]: 8.6
sequence count [9]: 4
spectrum count [9]: 6
abundance factor (AF) [10]: 14.1
sequence count [10]: 12
spectrum count [10]: 12
abundance factor (AF) [11]: 2.6
sequence count [11]: 2
spectrum count [11]: 2
abundance factor (AF) [12]: 8.3
sequence count [12]: 6
spectrum count [12]: 6
abundance factor (AF) [13]: 3.8
sequence count [13]: 3
spectrum count [13]: 3
abundance factor (AF) [14]: 2
sequence count [14]: 4
spectrum count [14]: 4
abundance factor (AF) [15]: 1.6
sequence count [15]: 9
spectrum count [15]: 9
abundance factor (AF) [16]: 1
sequence count [16]: 2
spectrum count [16]: 2
abundance factor (AF) [17]: 10.7
sequence count [17]: 2
spectrum count [17]: 2
abundance factor (AF) [18]: 9.1
sequence count [18]: 6
spectrum count [18]: 8
abundance factor (AF) [19]: 2.7
sequence count [19]: 2
spectrum count [19]: 2
abundance factor (AF) [20]: 24.6
sequence count [21]: 2
sequence coverage [21]: 4.8%
spectrum count [21]: 2
sequence count [22]: 5
sequence coverage [22]: 5.9%
spectrum count [22]: 5

endogenous FAF1 (from UniProt Q9UNN5 1-650)
sequence count [23]: 7
sequence coverage [23]: 8.2%
spectrum count [23]: 11
